According to patent US20180155451A1 (published 2018):
Changes are numbered by the printed parent chain. In names and notes the source's numbering stands.

T1: FcγRIIb (human, UniProt P31994 43-217)
T1 construct: extracellular domain; for crystallography expressed with Kifunesine and trimmed with Endo F1; also called FcgRIIb; FcgR2b; not shown: His tag attached to the C terminus
T1 sequence (looked up): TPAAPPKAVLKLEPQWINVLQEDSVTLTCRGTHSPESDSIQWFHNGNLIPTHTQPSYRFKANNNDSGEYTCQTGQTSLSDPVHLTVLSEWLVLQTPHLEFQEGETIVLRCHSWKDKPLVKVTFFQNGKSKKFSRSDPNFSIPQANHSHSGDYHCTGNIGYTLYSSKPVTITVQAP

T2: FcγRIIa H (FcγRIIa, allotype with His at position 131), extracellular domain with C-terminal His tag (human, UniProt P12318 34-217)
T2 construct: extracellular domain; Soluble receptor expressed in FreeStyle293 cells and used as the analyte in Biacore; also called FcgRIIa H; FcγRIIa type H; not shown: His tag attached to the C terminus
T2 sequence (looked up): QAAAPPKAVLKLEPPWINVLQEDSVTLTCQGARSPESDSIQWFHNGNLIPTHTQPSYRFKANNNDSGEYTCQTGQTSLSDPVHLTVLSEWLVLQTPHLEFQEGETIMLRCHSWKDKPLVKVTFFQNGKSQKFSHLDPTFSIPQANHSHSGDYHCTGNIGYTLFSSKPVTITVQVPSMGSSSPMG

B1: GpH7-A29/GpL16-k0 (antibody, human IgG1, kappa)
heavy: QVQLVQSGAEVKKPGASVTVSCKASGYTFTDYEMHWIRQPPGEGLEWIGAIDPKTGDTAYSESFQDRVTLTADKSTSTAYMELSSLTSEDTAVYYCTRFYSYTYWGQGTLVTVSSASTKGPSVFPLAPSSKSTSGGTAALGCLVKDYFPEPVTVSWNSGALTSGVHTFPAVLQSSGLYSLSSVVTVPSSSLGTQTYICNVNHKPSNTKVDKKVEPKSCDKTHTCPPCPAPELLGLPSVFLFPPKPKDTLMISRTPEVTCVVVDVSHEDPEVKFNWYVDGVEVHNAKTKPREEQYNSTYRVVSVLTVLHQDWLNGKEYKCKVSNKALPAPIEKTISKAKGQPREPQVYTLPPSRKELTKNQVSLTCLVKGFYPSDIAVEWESNGQPENNYKTTPPVLDSDGSFFLYSKLTVDKSRWQQGNVFSCSVMHEALHNRYTQKSLSLSP
light: DIVMTQSPLSLPVTPGEPASISCQASESLVHSNRNTYLHWYLQKPGQSPQLLIYKVSNRFSGVPDRFSGSGSGTDFTLKISRVEAEDVGVYYCSQNTHVPPTFGQGTKVEIERTVAAPSVFIFPPSDEQLKSGTASVVCLLNNFYPREAKVQWKVDNALQSGNSQESVTEQDSKDSTYSLSSTLTLSKADYEKHKVYACEVTHQGLSSPVTKSFNRGEC
notes: G237L in both H chains
B2: GpH7-A42/GpL16-k0 (antibody, human IgG1, kappa)
heavy: B1 heavy with L235G, L326E
light: B1 light
notes: L328E in both H chains
B3: GpH7-A43/GpL16-k0 (antibody, human IgG1, kappa)
heavy: B1 heavy with L235G, L326D
light: B1 light
notes: L328D in both H chains
B4: GpH7-A5/GpH7-B3 variant T335_02A/GpL16-k0 (heterodimerized antibody, He Ab) (antibody, human IgG1, kappa)
heavy 1: not shown
heavy 2: not shown
light: B1 light
notes: Anti-glypican-3 IgG1; the substitution stands only in the GpH7-B3 chain, the other H chain is GpH7-A5 (D356K/H435R); Position is EU numbering; also called He Ab T335A
B5: GpH7-A5/GpH7-B3 variant T335_04F/GpL16-k0 (heterodimerized antibody, He Ab) (antibody, human IgG1, kappa)
heavy 1: not shown
heavy 2: not shown
light: B1 light
notes: Anti-glypican-3 IgG1; substitution only in the GpH7-B3 chain; Position is EU numbering; also called He Ab T335F
B6: GpH7-A5/GpH7-B3 variant T335_05P/GpL16-k0 (heterodimerized antibody, He Ab) (antibody, human IgG1, kappa)
heavy 1: not shown
heavy 2: not shown
light: B1 light
notes: Anti-glypican-3 IgG1; substitution only in the GpH7-B3 chain; Position is EU numbering; also called He Ab T335P
B7: GpH7-A5/GpH7-B3 variant T335_06M/GpL16-k0 (heterodimerized antibody, He Ab) (antibody, human IgG1, kappa)
heavy 1: not shown
heavy 2: not shown
light: B1 light
notes: Anti-glypican-3 IgG1; substitution only in the GpH7-B3 chain; Position is EU numbering; also called He Ab T335M
B8: GpH7-A5/GpH7-B3 variant T335_08L/GpL16-k0 (heterodimerized antibody, He Ab) (antibody, human IgG1, kappa)
heavy 1: not shown
heavy 2: not shown
light: B1 light
notes: Anti-glypican-3 IgG1; substitution only in the GpH7-B3 chain; Position is EU numbering; also called He Ab T335L
B9: GpH7-A5/GpH7-B3 variant T335_09D/GpL16-k0 (heterodimerized antibody, He Ab) (antibody, human IgG1, kappa)
heavy 1: not shown
heavy 2: not shown
light: B1 light
notes: Anti-glypican-3 IgG1; substitution only in the GpH7-B3 chain; Position is EU numbering; also called He Ab T335D
B10: GpH7-A5/GpH7-B3 variant Y300_06M/GpL16-k0 (heterodimerized antibody, He Ab) (antibody, human IgG1, kappa)
heavy 1: not shown
heavy 2: not shown
light: B1 light
notes: Anti-glypican-3 IgG1; substitution only in the GpH7-B3 chain; Position is EU numbering; also called He Ab Y300M
B11: GpH7-A5/GpH7-B3 variant Y300_07I/GpL16-k0 (heterodimerized antibody, He Ab) (antibody, human IgG1, kappa)
heavy 1: not shown
heavy 2: not shown
light: B1 light
notes: Anti-glypican-3 IgG1; substitution only in the GpH7-B3 chain; Position is EU numbering; also called He Ab Y300I
B12: GpH7-A5/GpH7-B3 variant Y300_08L/GpL16-k0 (heterodimerized antibody, He Ab) (antibody, human IgG1, kappa)
heavy 1: not shown
heavy 2: not shown
light: B1 light
notes: Anti-glypican-3 IgG1; substitution only in the GpH7-B3 chain; Position is EU numbering; also called He Ab Y300L
B13: GpH7-A5/GpH7-B3/GpL16-k0 (antibody, human IgG1, kappa)
heavy 1: not shown
heavy 2: not shown
light: B1 light
notes: also called HeCon Ab; control heterodimerized antibody
B14: GpH7-A5/GpH7-B80/GpL16-k0 (antibody, human IgG1, kappa)
heavy 1: not shown
heavy 2: not shown
light: B1 light
notes: Heterodimerized anti-glypican-3 IgG1
B15: GpH7-A44/GpH7-B3/GpL16-k0 (antibody, human IgG1, kappa)
heavy 1: B1 heavy with L235G, I330E
heavy 2: not shown
light: B1 light
notes: Heterodimerized anti-glypican-3 IgG1; I332E only in the GpH7-A5-derived chain (A44)

Molecular target: T1, FcγRIIb
Test: SPR (Biacore), relative binding
Text: The constructed expression vectors were each combined with GpH7-A5 and GpL16-k0 to express heterodimerized antibodies, or they were combined with GpL16-k0 alone but not with other H chains to express homodimerized antibodies. These antibodies were expressed and purified according to the method described in Reference Example 1. The resulting purified antibodies are the following: the heterodimerized antibodies GpH7-A5/GpH7-B12/GpL16-k0, GpH7-A5/GpH7-B13/GpL16-k0, GpH7-A5/GpH7-B14/GpL16-k0, and GpH7-A5/GpH7-B15/GpL16-k0; and homodimerized antibodies GpH7-B12/GpL16-k0, GpH7-B13/GpL16-k0, GpH7-B14/GpL16-k0, and GpH7-B15/GpL16-k0. The prepared antibodies were used to assess the binding activity to each FcγR by the method described in Reference Example 2.
(§1) Analysis of interaction between objective antibody and the FcγR was carried out using Biacore T100 (GE Healthcare). HBS-EP+ (GE Healthcare) was used as the running buffer, and the measurement temperature was set to 25° C. Chips produced by immobilizing the antigen peptide by the amine coupling method to a Series S Sencor Chip CM5 (GE Healthcare), or alternatively, chips produced by allowing preliminarily biotinylated antigen peptides to interact with and immobilize onto a Series S Sensor Chip SA (certified) (GE Healthcare) were used. Antibodies of interest were captured onto an antigen peptide-immobilized chip, and allowed to interact to each FcγR diluted with running buffer. To regenerate and repeatedly use the chip, the antibodies captured on the chip were washed off by reacting 10 mM glycine-HCl, pH 1.5.

Binder	binding result
B1	binds
B2	binds
B3	binds

Molecular target: T2, FcγRIIa H (FcγRIIa, allotype with His …)
Test: SPR (Biacore T100), antibody captured on antigen-peptide chip, FcγRIIa H as analyte; response per captured antibody relative to GpH7-A5/GpH7-B3/GpL16-k0
Protocol: as §1

Binder	He/Con_2aH
B4	101 relative binding activity (control heterodimerized antibody GpH7-A5/GpH7-B3/GpL16-k0 = 100)
B5	103 relative binding activity (control heterodimerized antibody GpH7-A5/GpH7-B3/GpL16-k0 = 100)
B6	108 relative binding activity (control heterodimerized antibody GpH7-A5/GpH7-B3/GpL16-k0 = 100)
B7	103 relative binding activity (control heterodimerized antibody GpH7-A5/GpH7-B3/GpL16-k0 = 100)
B8	106 relative binding activity (control heterodimerized antibody GpH7-A5/GpH7-B3/GpL16-k0 = 100)
B9	107 relative binding activity (control heterodimerized antibody GpH7-A5/GpH7-B3/GpL16-k0 = 100)
B10	105 relative binding activity (control heterodimerized antibody GpH7-A5/GpH7-B3/GpL16-k0 = 100)
B11	108 relative binding activity (control heterodimerized antibody GpH7-A5/GpH7-B3/GpL16-k0 = 100)
B12	108 relative binding activity (control heterodimerized antibody GpH7-A5/GpH7-B3/GpL16-k0 = 100)

Molecular target: T3, FcγRIIIa extracellular domain with C-terminal His tag (human, UniProt P08637 17-208)
T3 construct: extracellular domain; also called FcgRIIIa; 3a; not shown: His tag at the C terminus
Test: SPR (Biacore), kinetic analysis, antibody captured, FcγRIIIa as analyte
Text: Then, the present inventors introduced I332E into only one H chain, and assessed whether the Tm is elevated as compared to when I332E is introduced into both H chains. Expression vectors inserted with GpH7-A44 (SEQ ID NO: 49) and GpH7-B80 (SEQ ID NO: 50) resulting from the introduction of I332E into GpH7-A5 and GpH7-B3, respectively, were constructed. They were combined with GpH7-B3, GpH7-A5, and GpL16-k0 to express and prepare the following antibodies according to the method described in Reference Example 1: the heterodimerized antibodies GpH7-A5/GpH7-B80/GpL16-k0 and GpH7-A44/GpH7-B3/GpL16-k0 in which only one of the H chains was introduced with I332E, and the homodimerized antibody GpH7-A44/GpH7-B80/GpL16-k0 in which both of the H chains were introduced with I332E. GpH7-A5/GpH7-B3/GpL16-k0 was prepared as a control. Each antibody was assessed for the FcγRIIIa-binding activity according to the method described in Reference Example 2. In addition, the antibodies were compared for the Tm of CH2 domain by thermal shift assay according to the method described in Reference Example 5 (Tables 28 and 29).
as §1
The FcγR-binding activity of each antibody was assessed primarily using as an indicator the FcγR-binding activity and dissociation constant for FcγR.

T3 sequence (P08637 17-208): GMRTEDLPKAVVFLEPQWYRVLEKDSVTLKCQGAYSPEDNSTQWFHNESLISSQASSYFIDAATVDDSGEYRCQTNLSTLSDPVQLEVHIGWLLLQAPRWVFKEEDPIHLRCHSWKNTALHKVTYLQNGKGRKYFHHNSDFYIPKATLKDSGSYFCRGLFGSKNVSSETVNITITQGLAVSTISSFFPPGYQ

Binder	KD ratio	Kd
B13	1 fold (KD of GpH7-A5/GpH7-B3/GpL16-k0 divided by KD of the antibody)	1600 nM
B14	3.4 fold (KD of GpH7-A5/GpH7-B3/GpL16-k0 divided by KD of the antibody)	470 nM
B15	4.4 fold (KD of GpH7-A5/GpH7-B3/GpL16-k0 divided by KD of the antibody)	370 nM
